{"source": "paper PMC10149453", "about": "“Three segment ligation of a 104 kDa multi-domain protein by SrtA and OaAEP1” (Journal of Biomolecular Nmr, 2022)", "biological_target": "T1, Ncc ligated to ZHk (P. furiosus, UniProt P58301 1-386; P58301 390-497)", "T1 construct": "Rad50 of P. furiosus, aa 1-386 (from Ncc); OaAEP1 ligation scar; replaces the natural 'LGD' (N from Ncc, GL from the N-terminus of ZHk); Rad50 of P. furiosus, Zn Hook domain, aa 390-497 (from ZHk); The ZHk part is uniformly deuterated and ILVM side-chain methyl labelled (isotopes only); also called Ncc-ZHk; Ncc-ZnHk; source: OaAEP1 ligation of Ncc (E. coli) to ZHk (E. coli, deuterated minimal …)", "T1 chain": "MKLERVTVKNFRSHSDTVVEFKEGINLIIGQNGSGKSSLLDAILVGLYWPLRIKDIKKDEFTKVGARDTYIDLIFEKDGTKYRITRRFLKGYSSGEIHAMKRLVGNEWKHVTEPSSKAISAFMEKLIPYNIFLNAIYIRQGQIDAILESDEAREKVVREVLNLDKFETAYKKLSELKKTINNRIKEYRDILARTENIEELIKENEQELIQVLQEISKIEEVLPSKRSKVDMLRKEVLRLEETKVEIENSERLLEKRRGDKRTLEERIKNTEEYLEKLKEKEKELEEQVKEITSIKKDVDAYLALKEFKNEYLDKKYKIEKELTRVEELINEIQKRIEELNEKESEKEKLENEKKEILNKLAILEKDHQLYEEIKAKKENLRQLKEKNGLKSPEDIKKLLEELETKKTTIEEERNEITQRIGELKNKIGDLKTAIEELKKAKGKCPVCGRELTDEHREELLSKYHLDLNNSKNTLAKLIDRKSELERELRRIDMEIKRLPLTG", "assay": "co-purification on a Ni affinity column; purified ligation mixture after TEV cleavage, separated on a HisTrap HP column; a 6His tag remains only on the C-terminus of ZHk in Ncc-ZHk; unreacted products in the flowthrough, target in the elution", "settings": "both partners purified"}
{"binder": "Pf Rad50 C-Terminal coiled-coil-NBD (aa 503 – 882) after TEV cleavage (domain or fragment, P. furiosus, N-terminal Gly exposed by TEV cleavage; replaces residue 502 of Rad50; also called ccC; TEV-cleaved ccC; source: E. coli BL21 Codon+, co-expressed with Ncc, purified, tag removed with TEV protease; not shown: His6 (MK-HHHHHH-ENLYFQ, with TEV cleavage site), N-terminal, cleaved) GTVAEQIRSIEEELNVVNLEKIEKNATEYEKLLEELRTLEGRIRGLAEDLKKLAPLEKKLAALIHKKQELEKELKELNTKLESFGFKSVEDLDSKLRELEEIYKRYLTLLNSKKELEITQREIAKAKETLEMSFEELAEVEADIERIEKKLSQLKQKYNEEEYKKKREEKEELEKELARLEAQKKELEKRRDTIKSTLEKLKAEKENRERVKKEIKDLEKAKDFTEELIEKVKKYKALAREAALSKIGELASEIFAEFTEGKYSEVVVRAEENKVRLFVVWEGKERPLTFLSGGERIALGLAFRLAMSLYLAGEISLLILDEPTPYLDEERRRKLITIMERYLKKIPQVILVSHDEELKDAADHVIRISLENGSSKVEVVS", "values": [{"measurement": "binding result", "value": "binds"}]}
